The numbers were not newly measured in paper PMC3601411, which cites them from elsewhere.

This data set has as its target Fibrinogen gamma chain C-terminal region (Homo sapiens) (UniProt P02679). Nature of the data set: isothermal calorimetry. Background: ITC needs no label: the signal is the heat of the interaction.

One may read the Kd as the concentration at which binding is half-saturated. Consider “Clumping factor A (ClfA) 229-545 (from UniProt Q2G015)”, for which the Kd is 657 nM.
